Measured values reported in patent publication US20250388666A1 (BRIGHAM AND WOMEN S HOSPITAL, published 2025).

T1: CEACAM1 (Sino Biological) (human, UniProt P13688 35-428, limits assumed)
T1 construct: may be the same as CEACAM1-HIS; also called hCEACAM1; biotinylated soluble CEACAM1
T1 sequence: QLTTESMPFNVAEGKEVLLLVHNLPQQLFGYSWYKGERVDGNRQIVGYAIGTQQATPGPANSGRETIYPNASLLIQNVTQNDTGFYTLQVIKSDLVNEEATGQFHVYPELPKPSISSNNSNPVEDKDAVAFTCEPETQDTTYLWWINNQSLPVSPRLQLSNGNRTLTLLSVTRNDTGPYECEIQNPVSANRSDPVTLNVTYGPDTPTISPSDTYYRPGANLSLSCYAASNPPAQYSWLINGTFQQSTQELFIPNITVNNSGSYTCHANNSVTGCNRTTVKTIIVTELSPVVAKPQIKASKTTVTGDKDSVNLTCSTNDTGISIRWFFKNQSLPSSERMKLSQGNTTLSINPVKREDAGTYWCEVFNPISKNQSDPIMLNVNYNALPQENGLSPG

T2: CEACAM5 (Sino Biological) (human, UniProt P06731 35-685)
T2 construct: also called hCEACAM5
T2 sequence (looked up): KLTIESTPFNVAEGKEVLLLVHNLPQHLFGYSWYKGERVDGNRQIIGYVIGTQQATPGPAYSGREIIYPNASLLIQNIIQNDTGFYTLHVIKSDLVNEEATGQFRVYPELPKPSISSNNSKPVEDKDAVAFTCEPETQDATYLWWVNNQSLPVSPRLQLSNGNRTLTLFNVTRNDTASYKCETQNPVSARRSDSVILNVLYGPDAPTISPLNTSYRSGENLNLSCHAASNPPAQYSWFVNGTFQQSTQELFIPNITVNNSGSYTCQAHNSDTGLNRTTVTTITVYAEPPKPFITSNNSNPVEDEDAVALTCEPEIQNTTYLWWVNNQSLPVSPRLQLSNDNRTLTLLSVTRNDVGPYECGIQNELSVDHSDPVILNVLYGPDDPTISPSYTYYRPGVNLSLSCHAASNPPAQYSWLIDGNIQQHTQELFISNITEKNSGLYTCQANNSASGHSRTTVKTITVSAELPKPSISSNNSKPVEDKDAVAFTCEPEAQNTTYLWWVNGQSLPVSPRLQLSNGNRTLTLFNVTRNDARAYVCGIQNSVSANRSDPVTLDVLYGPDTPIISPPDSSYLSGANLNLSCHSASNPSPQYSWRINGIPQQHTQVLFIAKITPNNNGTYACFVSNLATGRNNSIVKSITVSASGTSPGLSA

T3: CEACAM6 (Sino Biological) (human, UniProt P40199 35-320)
T3 construct: also called hCEACAM6
T3 sequence (looked up): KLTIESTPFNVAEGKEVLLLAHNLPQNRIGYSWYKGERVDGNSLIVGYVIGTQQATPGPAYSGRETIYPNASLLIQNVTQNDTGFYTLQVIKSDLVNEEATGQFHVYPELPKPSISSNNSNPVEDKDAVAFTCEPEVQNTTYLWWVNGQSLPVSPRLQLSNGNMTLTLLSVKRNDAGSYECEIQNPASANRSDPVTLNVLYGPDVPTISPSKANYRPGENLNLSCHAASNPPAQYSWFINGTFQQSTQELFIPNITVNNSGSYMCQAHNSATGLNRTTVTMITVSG

T4: CEACAM3 (Sino Biological) (human, UniProt P40198 35-155, limits assumed)
T4 construct: also called hCEACAM3
T4 sequence (looked up): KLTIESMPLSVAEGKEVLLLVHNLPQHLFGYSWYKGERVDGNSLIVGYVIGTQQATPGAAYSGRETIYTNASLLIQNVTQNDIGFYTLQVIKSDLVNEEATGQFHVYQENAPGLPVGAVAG


Tests used:
[1] = target: T1, CEACAM1 (Sino Biological); test: SPR single-cycle
Method in brief: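 Humanized affinity-matured IgGs from crude supernatants captured on Protein A to ~100 RU, with CEACAM1 analyte injected at 25–100 nM (three-point, two-fold) in HBS-P+ without regeneration. 200 s association per injection, 300 s single dissociation; reference-channel and blank subtracted.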

[2] = target: T1, CEACAM1 (Sino Biological); test: SPR multi-cycle, IgG on Protein A
Protocol: Multi-cycle kinetics analysis was performed on the twelve lead antibodies using a Biacore T200 instrument running Biacore T200 Evaluation Software V3.0.1 (Uppsala, Sweden) to establish an accurate affinity for CEACAM1. The purified antibodies were diluted to a concentration of […] in HBS-P+. At the start of each cycle, each antibody was captured on the Protein A surface to give an RL of ˜100 RU. Following capture, the surface was allowed to stabilize. Kinetic data was obtained using a flow rate of […] to minimize any potential mass transfer effects. For the kinetics analysis, CEACAM1 was used. Multiple repeats of the blank ([…]) and a repeat of a single concentration of the analyte were programmed into the kinetic run in order to check the stability of both the surface and analyte over the kinetic cycles. For kinetic analysis, a two-fold dilution range was selected from 200 to 3.125 nM CEACAM1. The association phase of CEACAM1 was monitored for 275 seconds and the dissociation phase was measured for 250 seconds. Regeneration of the Protein A surface was conducted using two injections of 10 mM glycine-HCL pH 1.5 at the end of each cycle.
The signal from the reference channel Fc1 was subtracted from that of Fc2, Fc3 and Fc4 to correct for differences in non-specific binding to a reference surface, and a global Rmax parameter was used in the 1-to-1 binding model. The relative KD was calculated by dividing the KD of the RSB02 Parent by that of the humanized and affinity matured variants on the same chip.

[3] = target: T2, CEACAM5 (Sino Biological); test: binding ELISA on plate-coated CEACAM (0.5 µg/mL); antibody at 1.67, 0.062 and 0.0069 µg/mL; signal as % of parent IgG on CEACAM1 at 1.67 µg/mL on the same plate
[4] = target: T3, CEACAM6 (Sino Biological); test: as above
[5] = target: T4, CEACAM3 (Sino Biological); test: as above

| Kd [1] [nM] | fold better than Parent (KD) [1] [fold] | Kd [2] [nM] | koff [2] [s⁻¹] | kon [2] [M⁻¹ s⁻¹] | relative KD to Parent [2] [ratio] | binding result [3] | binding result [4] | binding result [5] | Binder |
| --- | --- | --- | --- | --- | --- | --- | --- | --- | --- |
| 27 | 5.85 | 31.6 | 0.00139 | 44000 | 4.15 | binds | – | – | He9/L3 (antibody, IgG4, V domains shown, IgG4 S241P, kappa; also called He9 / 3) VH: EVQLLESGGGLVQPGGSLRLSCAASGFSFSDYYLYWVRQAPGKGLEWVATISVGGGQTSYADSVKGRFTISRDNSKNTLYLQMNSLRAEDTAMYYCARAMYYGPAWFAYWGQGTLVTVSS VL: DIVMTQSPDSLAVSLGERATINCKSSQSLLNSANQKNYLAWYQQKPGQPPKLLIYFASTRESGVPDRFSGSGSGTDFTLTISSLQAEDVAVYYCQSHFPFPFTFGGGTKVEIK |
| 33 | 4.88 | 40.9 | 0.0015 | 36700 | 4.55 | binds | – | – | He9/L17 (antibody, IgG4, V domains shown, IgG4 S241P, kappa; also called He9 / 17) VH: EVQLLESGGGLVQPGGSLRLSCAASGFSFSDYYLYWVRQAPGKGLEWVATISVGGGQTSYADSVKGRFTISRDNSKNTLYLQMNSLRAEDTAMYYCARAMYYGPAWFAYWGQGTLVTVSS VL: DIVMTQSPDSLAVSLGERATINCKSSQSLLNSANQKNYLAWYQQKPGQPPKLLIYFASTRESGVPDRFSGSGSGTDFTLTISSLQAEDVAVYYCQSHYPYPYTFGGGTKVEIK |
| 163 | 3.38 | 147 | 0.00437 | 29800 | 1.3 | – | no binding (tested: 1.67 µg/mL) | no binding (tested: 1.67 µg/mL) | Parent VH/L4#2 (antibody, IgG4, V domains shown, IgG4 S241P, kappa; also called VHp/L4 #2; VH2 N56Q / 4#2) VH: EVQLLESGGGLVQPGGSLRLSCAASGFSFSDYYLYWVRQAPGKGLEWVATISVGGGQTSYADSVKGRFTISRDNSKNTLYLQMNSLRAEDTAMYYCTRGLYYGPAWFAYWGQGTLVTVSS VL: DIVMTQSPDSLAVSLGERATINCKSSQSLLNSANQKNYLAWYQQKPGQPPKLLIYFASTRESGVPDRFSGSGSGTDFTLTISSLQAEDVAVYYCQSHYPYPYTFGGGTKVEIK |
